Assay [1] addresses T1, von Willebrand factor (VWF), purified plasma-derived, multimeric, native (UniProt P04275 764-2813).
T1 construct: mature; human is implied; also called pvWF; plasma VWF
Briefly: pull-down on VWF-Affi-gel 10, western blot with anti-V5 (FIG. 5B); the microtiter result is given with a literature citation. How it is done: FIG. 5. Binding of ADAMTS13 (or variants) to VWF immobilized on solid surfaces. A. Binding of ADAMTS13 and variants to VWF immobilized on a microtiter plate: FL-A13, delCUB and MDTCS (0-200 nM) were incubated without (control) or with VWF (10 μg/ml, 100 μl/well) immobilized on a microtiter plate for 1 h. The bound ADAMTS13 and variants were determined by mouse anti-V5 IgG, followed by rabbit anti-mouse IgG, peroxidase-conjugated and OPD-H₂O₂. The KD (S) was determined by fitting the data into non-linear regression. B. Binding of ADAMTS13 and variants to immobilized VWF on Affi-gel 10: FL-A13, delCUB, MDTCS and metalloprotease domain (M) (˜50 nM) were incubated at 37° C. for 1 h without (−) or with (+) VWF covalently immobilized onto the Affi-gel 10. After extensive washing with TBS and 20 mM Tris-HCl, pH 7.5, […], the bound ADAMTS13 and variants were eluted from the beads with SDS-gel sample buffer and determined by Western blot with anti-V5. The amount of input FL-A13, delCUB, and MDTCS is the same with the signal of only FL-A13 shown in lane 1 (IN).
The binding of ADAMTS13 to immobilized Affi-gel 10 was also described previously²². […] The bound FL-A13 and variants were eluted from the beads by boiling them at 100° C. for 10 min and detected by Western blotting with anti-V5 IgG as described previously^{22;24;29}.

A further assay deals with T2, murine vWF (murine, UniProt Q8CIZ8 764-2813, limits assumed).
T2 construct: also called immobilized murine vWF
T2 sequence (Q8CIZ8 764-2813 limits assumed): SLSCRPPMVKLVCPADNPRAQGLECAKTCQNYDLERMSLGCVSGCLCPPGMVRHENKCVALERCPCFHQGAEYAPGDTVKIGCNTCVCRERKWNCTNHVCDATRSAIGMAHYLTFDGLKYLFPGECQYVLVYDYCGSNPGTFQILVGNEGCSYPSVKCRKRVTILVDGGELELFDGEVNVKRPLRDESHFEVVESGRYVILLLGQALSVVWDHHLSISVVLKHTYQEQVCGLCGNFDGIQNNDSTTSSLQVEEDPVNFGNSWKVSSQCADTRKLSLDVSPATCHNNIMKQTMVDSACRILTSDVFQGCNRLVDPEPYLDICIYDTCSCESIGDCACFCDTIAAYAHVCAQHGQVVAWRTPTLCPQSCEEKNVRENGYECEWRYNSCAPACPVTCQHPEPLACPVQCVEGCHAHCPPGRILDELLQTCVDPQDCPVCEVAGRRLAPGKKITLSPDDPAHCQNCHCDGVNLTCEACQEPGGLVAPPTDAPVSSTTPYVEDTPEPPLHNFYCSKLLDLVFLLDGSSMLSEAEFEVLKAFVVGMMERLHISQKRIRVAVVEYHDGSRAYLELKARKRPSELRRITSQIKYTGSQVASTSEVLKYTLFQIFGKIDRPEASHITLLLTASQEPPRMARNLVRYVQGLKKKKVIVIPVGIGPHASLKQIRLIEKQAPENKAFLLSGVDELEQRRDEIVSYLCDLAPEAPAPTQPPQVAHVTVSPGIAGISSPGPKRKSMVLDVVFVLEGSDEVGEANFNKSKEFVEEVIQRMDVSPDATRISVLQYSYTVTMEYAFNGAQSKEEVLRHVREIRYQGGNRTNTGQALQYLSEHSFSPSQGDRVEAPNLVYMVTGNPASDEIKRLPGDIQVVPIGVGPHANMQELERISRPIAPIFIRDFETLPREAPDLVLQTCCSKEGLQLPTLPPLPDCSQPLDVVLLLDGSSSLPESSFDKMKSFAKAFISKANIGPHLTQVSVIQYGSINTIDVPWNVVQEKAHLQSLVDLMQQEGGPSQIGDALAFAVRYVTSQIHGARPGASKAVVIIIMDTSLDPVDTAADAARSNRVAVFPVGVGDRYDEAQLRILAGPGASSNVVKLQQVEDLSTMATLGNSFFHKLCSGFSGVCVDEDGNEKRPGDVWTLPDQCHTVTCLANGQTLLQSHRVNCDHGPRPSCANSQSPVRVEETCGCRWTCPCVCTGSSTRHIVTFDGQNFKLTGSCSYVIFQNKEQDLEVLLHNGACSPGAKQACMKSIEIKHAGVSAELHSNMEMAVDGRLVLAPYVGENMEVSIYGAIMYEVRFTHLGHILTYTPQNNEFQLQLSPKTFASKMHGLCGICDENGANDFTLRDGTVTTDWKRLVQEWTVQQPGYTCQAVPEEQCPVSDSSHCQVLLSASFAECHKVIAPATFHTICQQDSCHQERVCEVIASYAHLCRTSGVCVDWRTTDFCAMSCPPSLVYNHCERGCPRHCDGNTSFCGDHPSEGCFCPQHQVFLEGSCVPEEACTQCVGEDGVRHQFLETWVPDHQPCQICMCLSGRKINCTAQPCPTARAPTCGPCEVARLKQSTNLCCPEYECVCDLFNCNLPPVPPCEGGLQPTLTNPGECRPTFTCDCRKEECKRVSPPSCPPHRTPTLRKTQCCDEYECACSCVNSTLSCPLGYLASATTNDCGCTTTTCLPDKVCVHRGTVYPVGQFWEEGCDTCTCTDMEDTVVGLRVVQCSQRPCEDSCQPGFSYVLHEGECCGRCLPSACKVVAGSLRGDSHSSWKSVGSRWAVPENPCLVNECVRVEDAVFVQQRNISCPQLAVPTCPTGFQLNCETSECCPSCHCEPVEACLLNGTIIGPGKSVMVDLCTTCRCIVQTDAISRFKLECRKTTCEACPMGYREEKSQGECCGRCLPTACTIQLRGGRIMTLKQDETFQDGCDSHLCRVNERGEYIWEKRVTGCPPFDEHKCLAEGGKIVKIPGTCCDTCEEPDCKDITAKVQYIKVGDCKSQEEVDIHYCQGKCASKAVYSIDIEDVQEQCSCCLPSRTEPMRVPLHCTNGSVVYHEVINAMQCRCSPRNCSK
Briefly: microtiter binding assay, immobilised murine vWF.

B1: ADAMTS13 metalloprotease domain alone (enzyme, UniProt Q76LX8 75-289, looked up)
chain: AAGGILHLELLVAVGPDVFQAHQEDTERYVLTNLNIGAELLRDPSLGAQFRVHLVKMVILTEPEGAPNITANLTSSLLSVCGWSQTINPEDDTDPGHADLVLYITRFDLELPDGNRQVRGVTQLGGACSPTWSCLITEDTGFDLGVTIAHEIGHSFGLEHDGAPGSGCGPSGHVMASDGAAPRAGLAWSPCSRRQLLSLLSAGRARCVWDPPRPQ
notes: domain: metalloprotease domain
In the case of B1, the binding result in assay [1] is “no binding”.

B2: canine FVIII-SQ (other, UniProt O18806 20-2343, looked up)
chain: ATRKYYLGAVELSWDYMQSDLLSALHADTSFSSRVPGSLPLTTSVTYRKTVFVEFTDDLFNIAKPRPPWMGLLGPTIQAEVYDTVVIVLKNMASHPVSLHAVGVSYWKASEGAEYEDQTSQKEKEDDNVIPGESHTYVWQVLKENGPMASDPPCLTYSYFSHVDLVKDLNSGLIGALLVCKEGSLAKERTQTLQEFVLLFAVFDEGKSWHSETNASLTQAEAQHELHTINGYVNRSLPGLTVCHKRSVYWHVIGMGTTPEVHSIFLEGHTFLVRNHRQASLEISPITFLTAQTFLMDLGQFLLFCHIPSHQHDGMEAYVKVDSCPEEPQLRMKNNEDKDYDDGLYDSDMDVVSFDDDSSSPFIQIRSVAKKHPKTWVHYIAAEEEDWDYAPSGPTPNDRSHKNLYLNNGPQRIGKKYKKVRFVAYTDETFKTREAIQYESGILGPLLYGEVGDTLLIIFKNQASRPYNIYPHGINYVTPLHTGRLPKGVKHLKDMPILPGEIFKYKWTVTVEDGPTKSDPRCLTRYYSSFINLERDLASGLIGPLLICYKESVDQRGNQMMSDKRNVILFSVFDENRSWYLTENMQRFLPNADVVQPHDPEFQLSNIMHSINGYVFDNLQLSVCLHEVAYWYILSVGAQTDFLSVFFSGYTFKHKMVYEDTLTLFPFSGETVFMSMENPGLWVLGCHNSDFRNRGMTALLKVSSCNRNIDDYYEDTYEDIPTPLLNENNVIKPRSFSQNPPVSKHHQREITVTTLQPEEDKFEYDDTFSIEMKREDFDIYGDYENQGLRSFQKKTRHYFIAAVERLWDYGMSRSPHILRNRAQSGDVQQFKKVVFQEFTDGSFTQPLYRGELNEHLGLLGPYIRAEVEDNIVVTFKNQASRPYSFYSSLISYDEDEGQGAEPRRKFVNPNETKIYFWKVQHHMAPTKDEFDCKAWAYFSDVDLEKDVHSGLIGPLLICRSNTLNPAHGRQVTVQEFALVFTIFDETKSWYFTENLERNCRAPCNVQKEDPTLKENFRFHAINGYVKDTLPGLVMAQDQKVRWYLLSMGSNENIHSIHFSGHVFTVRKKEEYKMAVYNLYPGVFETVEMLPSQVGIWRIECLIGEHLQAGMSTLFLVYSKKCQTPLGMASGHIRDFQITASGQYGQWAPKLARLHYSGSINAWSTKDPFSWIKVDLLAPMIIHGIMTQGARQKFSSLYVSQFIIMYSLDGNKWHSYRGNSTGTLMVFFGNVDSSGIKHNIFNPPIIAQYIRLHPTHYSIRSTLRMELLGCDFNSCSMPLGMESKAISDAQITASSYLSSMLATWSPSQARLHLQGRTNAWRPQANNPKEWLQVDFRKTMKVTGITTQGVKSLLISMYVKEFLISSSQDGHNWTLFLQNGKVKVFQGNRDSSTPVRNRLEPPLVARYVRLHPQSWAHHIALRLEVLGCDTQQPA
notes: also called canine B-domain deleted factor VIII
For orientation: Kd means the constant that tells how readily two partners part at equilibrium. A lower Kd goes with tighter binding. In the assay with murine vWF, B2 had a Kd of approximately 1.7 nM.

(Values after patent US20100144634A1 (published 2010).)
